According to patent publication US20170210824A1:

Biological target: Peptide-3B (NME1 H118, 1-pTza) (mammalian)
Test: peptide dot blot array

1-pHis mAb SC1-1 (antibody) showed a lowest amount detected of 1 ng.
